Earlier results in article PMC11266353, “Synthesis of a highly thermostable insulin by phenylalanine conjugation at B29 Lysine” (Communications Chemistry, 2024).

Design: method as in Protein J., 2023, 42, 383
Conditions: ref Protein J., 2023, 42, 383

For “Modified insulin: insulin analog reported in Protein J., 2023, 42, 383: tri-acetylated at Gly A1, Phe B1 and Lys B29”, the Melting temperature is listed as 72.5 °C.
